In publication PMC9274004, “Deciphering the Molecular Interaction Between the Adhesion G Protein-Coupled Receptor ADGRV1 and its PDZ-Containing Regulator PDZD7” (Frontiers in Molecular Biosciences, 2022):

Tests used:
harmonin supramodule = details: for protocadherin-15; ref Michel et al., 2020; cited from earlier work
Source text: These folded extensions modulate the affinity of associated PDZ domains for their partners and promote the formation of domain assembly. In harmonin, this extension folds as a hairpin followed by a short α-helix mediating the formation of a heterotopic supramodule between the first PDZ and the upstream Harmonin Homology Domain (HHD) and forming direct contacts with residues upstream of the partner’s PBM ([Yan et al., 2010]) (PDB e ...

[1] = biological target: T1, PDZD7 PDZ tandem (P1P2 construct; A81 to G313) (mouse); experiment: other fluorescence titration; tryptophan fluorescence (excitation 295 nm) of P1P2 at 2 µM in Phosphate Buffer pH 6.6 (50 mM) on progressive addition of ADGRV1pbm peptide or the cytoplasmic domain; apparent Kd
T1 sequence (E9Q9W7 81-313, looked up): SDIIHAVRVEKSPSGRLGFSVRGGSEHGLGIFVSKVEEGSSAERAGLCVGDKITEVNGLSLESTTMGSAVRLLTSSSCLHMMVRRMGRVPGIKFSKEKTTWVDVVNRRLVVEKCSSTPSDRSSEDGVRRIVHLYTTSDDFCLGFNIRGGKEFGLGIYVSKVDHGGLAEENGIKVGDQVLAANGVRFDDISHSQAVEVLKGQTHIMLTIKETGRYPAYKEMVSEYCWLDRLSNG

[2] = biological target: PDZD7 N-terminus with PDZ1 and its extension (N-PDZ1ext construct; M1-E192) (mouse) (UniProt E9Q9W7); experiment: NMR titration; chemical shift perturbations of PDZ1ext or N-PDZ1ext with the whole ADGRV1 cytoplasmic domain or the PBM peptide; apparent Kd, mean over at least ten shifting peaks; buffer not given for these titrations
[3] = biological target: T2, PDZD7 first PDZ domain with its C-terminal extension (PDZ1ext construct; A81 to E192) (mouse); experiment: as above
T2 sequence (E9Q9W7 81-192, looked up): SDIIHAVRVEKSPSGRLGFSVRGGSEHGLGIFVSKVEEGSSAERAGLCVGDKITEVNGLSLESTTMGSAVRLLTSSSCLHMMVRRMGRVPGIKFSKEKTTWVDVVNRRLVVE

PDZD7 PDZ1ext (81-192) = biological target: T3, PDZD7 PDZ1ext (81-192) (Mus musculus, UniProt E9Q9W7); experiment: NMR titration of PDZ1ext with ADGRV1 ligands; assay type: binding, murine; details: NMR titration, 25°C; apparent Kd, SD over at least ten shifting peaks; ligand whole cytoplasmic domain; read-out: Kd (Cyto)
T3 construct: PDZ1 (81-167), PDZ1ext (81-192); GST (followed by TEV site) (N, cleaved yes); made in house; host or cells: E. coli BL21 DE3
T3 sequence (E9Q9W7 81-192): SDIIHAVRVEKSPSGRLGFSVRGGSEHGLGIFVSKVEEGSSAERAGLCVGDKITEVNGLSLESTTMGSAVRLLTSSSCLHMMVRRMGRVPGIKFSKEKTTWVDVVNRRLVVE
Protocol: All experiments were recorded at 25°C on a Bruker 800 MHz spectrometer equipped with a triple resonance ^1H{^13C/^15N} cryoprobe. The ^1H, ^15 N and ^13C backbone resonances assignment of PDZ1ext was carried out using 3D HNCA, HNCACB, HNCO, HNCOCA experiments (Tris HCl buffer adjusted to pH 6). The 2D ^1H-^15N HSQC spectra used to compare PDZ1, PDZ1ext, PDZ2 and PDZ2ext were recorded in Tris HCl pH 7.5 (50 mM). The 2D ^1H-^15N HSQC spectra used to compare PDZ1ext, PDZ2ext and P1P2 were recorded in Phosphate Buffer pH 6.5 (50 mM). Titration experiments of PDZ1 (WT), PDZ1ext (WT) and PDZ1ext (G103R) against ADGRV1pbm peptide were performed in Tris HCl pH 7.5 (50 mM). Averaged Chemical Shifts Perturbations (CSP) were calculated as: Δδavg = ((Δδ(^1H))^2+(Δδ(^15N)*0.159)^2)^½. […]
We monitored the interaction between PDZD7 constructs and a peptide (ADGRV1pbm) corresponding to the last 13 residues of ADGRV1, encompassing its PBM (sequence VELRRIPIADTHL-COOH; PBM underlined). We measured apparent Kd values of our constructs towards ADGRV1pbm using several biophysical methods (NMR, fluorescence, MicroScale Thermophoresis (MST)) (Table 1; Supplementary Figure S3–S5). […]

PDZD7 N-PDZ1ext = biological target: T4, PDZD7 N-PDZ1ext (Mus musculus, UniProt E9Q9W7); experiment: NMR titration of N-PDZ1ext with ADGRV1 ligands; assay type: binding, murine
T4 construct: including the N-terminus of the protein (N-PDZ1ext construct; M1-E192); GST (followed by TEV site) (N, cleaved yes); made in house; host or cells: E. coli BL21 DE3
T4 sequence (E9Q9W7 1-192): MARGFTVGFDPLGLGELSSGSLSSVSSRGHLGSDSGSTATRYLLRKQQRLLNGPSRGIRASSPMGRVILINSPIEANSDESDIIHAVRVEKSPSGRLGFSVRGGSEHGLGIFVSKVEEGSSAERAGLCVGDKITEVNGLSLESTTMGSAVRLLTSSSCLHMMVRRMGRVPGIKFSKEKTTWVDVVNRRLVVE
Protocol: All experiments were recorded at 25°C on a Bruker 800 MHz spectrometer equipped with a triple resonance ^1H{^13C/^15N} cryoprobe. The ^1H, ^15 N and ^13C backbone resonances assignment of PDZ1ext was carried out using 3D HNCA, HNCACB, HNCO, HNCOCA experiments (Tris HCl buffer adjusted to pH 6). The 2D ^1H-^15N HSQC spectra used to compare PDZ1, PDZ1ext, PDZ2 and PDZ2ext were recorded in Tris HCl pH 7.5 (50 mM). The 2D ^1H-^15N HSQC spectra used to compare PDZ1ext, PDZ2ext and P1P2 were recorded in Phosphate Buffer pH 6.5 (50 mM). Titration experiments of PDZ1 (WT), PDZ1ext (WT) and PDZ1ext (G103R) against ADGRV1pbm peptide were performed in Tris HCl pH 7.5 (50 mM). Averaged Chemical Shifts Perturbations (CSP) were calculated as: Δδavg = ((Δδ(^1H))^2+(Δδ(^15N)*0.159)^2)^½. For the determination of dissociation constants (Kd) of each peptide/PDZ interaction, averaged CSP δavg was plotted as a function of the molar ratio (peptide/PDZ) for several peaks and fitted using nonlinear regression and assuming a simple complex formation model.
The P1P2 tandem of PDZD7 is preceded by 80 residues with no predicted secondary or tertiary structure, but which could contribute to the interaction with ADGRV1. […] We first aimed at identifying potential secondary structures in both PDZD7 N-terminal region and ADGRV1 cytoplasmic domain. To this end, we produced both an extended PDZ1ext construct, including the N-terminus of the protein (N-PDZ1ext construct; M1-E192) and the whole ADGRV1 cytoplasmic domain of 152 residues.
On the overlay of PDZ1ext and N-PDZ1ext HSQC spectra, there is no significant chemical shift changes on PDZ1ext due to the presence of the N-terminal region (CSPs <0.04 ppm). […] We used the entire cytoplasmic domain of ADGRV1 as partner of PDZD7 in NMR and fluorescence titrations experiments. […] Finally, we measured Kd values in the few micromolar range between the tandem P1P2 and the whole cytoplasmic domain and the last 13 residues of ADGRV1 by fluorescence experiments.

[4] = biological target: T5, PDZD7 second PDZ domain (PDZ2 construct; G206 to G292) (mouse, UniProt E9Q9W7-1 206-292); experiment: MST; label-free; PDZ2 at 140 μM in MES pH6 (50 mM) mixed 1:1 with a serial dilution of ADGRV1pbm peptide; apparent Kd; details: both partners purified
T5 construct: PDZD7, mouse, long isoform (Uniprot E9Q9W7-1), residues 206-292; source: E. coli BL21 DE3, purified (GSTrap, on-column TEV cleavage, SEC); not shown: GST, N-terminal, cleaved
T5 sequence (looked up): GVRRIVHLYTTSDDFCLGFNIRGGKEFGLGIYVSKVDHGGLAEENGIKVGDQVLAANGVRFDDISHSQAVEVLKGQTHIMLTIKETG

[5] = biological target: T6, PDZD7 second PDZ domain with its C-terminal extension (PDZ2ext construct; G206 to G313) (mouse, UniProt E9Q9W7-1 206-313); experiment: other fluorescence titration; tryptophan fluorescence (excitation 295 nm) of PDZ2ext at 5 µM in Tris HCl pH 7.5 (50 mM) on progressive addition of ADGRV1pbm peptide; apparent Kd; details: both partners purified
T6 construct: also called PDZ2ext WT; source: E. coli BL21 DE3, purified (GSTrap, on-column TEV cleavage, SEC); not shown: GST, N-terminal, cleaved
T6 sequence (looked up): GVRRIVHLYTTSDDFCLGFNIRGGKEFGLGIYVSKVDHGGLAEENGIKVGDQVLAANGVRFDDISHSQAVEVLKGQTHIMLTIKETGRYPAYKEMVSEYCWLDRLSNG

[6] = biological target: PDZD7 PDZ1ext G103R (mouse); experiment: NMR titration; 1H-15N HSQC chemical shift perturbations of the labelled PDZ construct on addition of ADGRV1pbm peptide; Tris HCl pH 7.5 (50 mM), 25°C; apparent Kd, mean over at least 10 shifting peaks
[7] = biological target: T2, PDZD7 first PDZ domain with its C-terminal extension (PDZ1ext construct; A81 to E192) (mouse); experiment: as above
[8] = biological target: PDZD7 PDZ tandem P1P2 G103R (mouse); experiment: other fluorescence titration; tryptophan fluorescence (excitation 295 nm) of P1P2 at 2 µM in Phosphate Buffer pH 6.6 (50 mM) on progressive addition of ADGRV1pbm peptide or the cytoplasmic domain; apparent Kd
[9] = biological target: T7, PDZD7 first PDZ domain (PDZ1 construct; A81 to G167) (mouse, Natural entry residue kept at 81: the paper prints A81 but the entry has Ser, so the Ala is probably a cloning junction or a misprint. The GST tag was removed by TEV; a short N-terminal scar is possib); experiment: NMR titration; 1H-15N HSQC chemical shift perturbations of the labelled PDZ construct on addition of ADGRV1pbm peptide; Tris HCl pH 7.5 (50 mM), 25°C; apparent Kd, mean over at least 10 shifting peaks; details: both partners purified
T7 chain: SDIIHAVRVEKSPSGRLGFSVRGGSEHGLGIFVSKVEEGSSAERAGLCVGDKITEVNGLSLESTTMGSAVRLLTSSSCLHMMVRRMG

In the case of “protocadherin-15: partner of harmonin supramodule”, the “increased affinity of harmonin supramodule vs isolated PDZ” value (harmonin supramodule) is listed as ~10 fold.

B1: ADGRV1 whole cytoplasmic domain (domain or fragment)
chain: HNQTCCPMKASYTVEMNGHPGPSTAFFTPGSGIPPAGEINKSTQNLINAMEEVPSDWERSSFQQTSQASPDLKTSPQNGASFPSSGGYGPGSLIADEESQEFDDLIFALKTGAGLSVSDNESGQGSQEGGTLTDSQIVELRRIPIADTHL
Work on B1 yielded a Kd [1] of 8.1 µM, a Kd [2] of 241 µM and a Kd [3] of 41 µM.

B2: ADGRV1 whole cytoplasmic domain: whole ADGRV1 cytoplasmic domain of 152 residues, murine long isoform (CCDS36737; 6149-6298) (protein)
chain: HNQTCCPMKASYTVEMNGHPGPSTAFFTPGSGIPPAGEINKSTQNLINAMEEVPSDWERSSFQQTSQASPDLKTSPQNGASFPSSGGYGPGSLIADEESQEFDDLIFALKTGAGLSVSDNESGQGSQEGGTLTDSQIVELRRIPIADTHL
modifications: left off: Histidine tag, N-terminal, cleaved
B2 gave a Kd (PDZD7 PDZ1ext (81-192)) of 41 ± 14 µM, a Kd (PDZD7 N-PDZ1ext; NMR titration, 25°C, SD over at least ten shifting peaks, ligand whole cytoplasmic domain, read-out: Kd (Cyto)) of 241 ± 115 µM and a decrease in affinity (PDZD7 N-PDZ1ext; due to the long unfolded N-terminus region, N-PDZ1ext vs PDZ1ext) of 6 fold.

B3: ADGRV1pbm peptide (last 13 residues of ADGRV1, with its PDZ binding motif) (peptide)
peptide: VELRRIPIADTHL
notes: ADGRV1, last 13 residues, free C-terminal carboxylate as printed (-COOH); The other ADGRV1 constructs are murine
B3 showed a Kd [4] of 313 µM, a Kd [5] of 3.1 µM and a Kd [6] of 1.19 mM. It also gave a Kd [7] of 47 µM, a Kd [1] of 1.6 µM and a Kd [8] of 1900 nM. The Kd [9] was 1.31 mM.
